In the supplement of paper PMC11502859:

System: HEK293T
Test: median enrichment of reporter reads in eGFP-reduced (low/intermediate) vs eGFP-high sorted cells (eGFP-extension fusion abundance) (ratio); higher = stronger loss of eGFP-fusion protein abundance (more destabilising extension)
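Note: lentiviral eGFP-IRES-mCherry reporter pool sorted by FACS 96 h post-transduction, gated on mCherry-high cells, Illumina read counts normalized per million, median across four biological replicates.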

| Substance | median enrichment |
| --- | --- |
| EAKSRCTQHVLGMQPQEVPDLKQPDSYLA [GREM1] | 0.305 |
| YRTM [IAPP] | 0.785 |
| LNI [WDR78] | 0.527 |
| KLSNH [WDR27] | 0.453 |
| YTPLCHFSGDPAFLIWK [CENPE] | 5.97 |
| LRLQCLLRRKIKFTSSKVTLEDRALGMSFFF [OR2C3] | 4.08 |
| WKMKIP [N4BP2L2] | 1.67 |
| LEIWRIF [RNF148] | 9.09 |
| SGTAVPACSPHLGRGSLAAFSLRSRST [AGAP1] | 8.94 |
| YSFTNQVP [SMAD2] | 0.532 |
| EVKGSIQVLHLVLPCLLSDHSDGLMWLLMWNCRRVQRRVCNKAIGKHTGAFPSPSGPRPLSKLDNFLLSCLFPALKLKQEIFW [HS3ST3B1] | 9.3 |
| LVLDKREAWKTPHASYHTSVLWLLSFEVLYCNLLICMECAYFLKGY [MED6] | 7.75 |
| SREDVKCLSVNCSAVSKQSSNLQY [RIT1] | 0.34 |
| YTLGKITYLSSCE [OR10G8] | 13.7 |
| SML [CTHRC1] | 3.13 |
| YVLIGLPAGCDSKA [CBX2] | 14 |
| RALLERLLCHPFAPERGSSQLS [DNPEP] | 9.53 |
| PPPPPPPPP [Pro09] | 3.45 |
| SDLVQHGNDSYRLIQQLTLRQVVLFQRPLFLPKPCYELNQMCQVFSGVLSNILFSCMGTSPLQMTMLMDLFIYLFKSLFS [IFNA8] | 8.28 |
| KRGCGSQGGLQGTGMSGGHQAQRKRKQREFTGPPEKSQSDVCRHLPIPASLARALLGPEQRRTCPTHTAIYSSRHRAPLPYSW [CRHR2] | 4.02 |
| CYSFQLLPLCLPG [TRIM55] | 7.06 |
| SGLLALTLQPTLAVWPSPGSFPAPLPLFPVLLNSPSWRVQALGMGGTRPHSFHRALRPDTADQPHSAQEAASGVGAQRGTAAS [BAP1] | 1.74 |
| KIFFSPIFLPASGDTAAVTREASLGGPDAQGESWSGESMSCDTTAGAICSPAFLSVGEGISEFILYPRLAFTKFKSLSMRPRP [PGPEP1] | 11.5 |
| KNAQLL [ROR1] | 0.376 |

| Substance | median enrichment |
| --- | --- |
| CIYTAKKNYECMEFFKKKYNALLQRTLGKKPYVKVMTVK [ZNF140] | 22.2 |
| WPHPAPPPPRPTRRPPDSSPGASSATPSLHPWGPSPPACTEQGLGVSWEA [ITGB4] | 1.34 |
| SVFGKQQRASPLPGGLPCRFWASFPCLSLFRCAFHL [MAP2K1] | 12.4 |
| EEEEEEE [Glu07] | 1.23 |
| WYSFHYSI [BTN3A3] | 6.28 |
| RLPAAQKNFALSFPVLFHTQKDPRKPVFNM [NR3C2] | 3.55 |
| YTDYIGSFELTSDKGGKFRQHYDLINFIF [MSH6] | 21.1 |
| LHVKTFILVSTVFQ [SCGB1D2] | 6.88 |
| LPGLRRTLWTECLRTSYSLMLNPFHFLSFHSWVDSDHKDSWGFPGRTLHLMEHLNCRFCFPPLPHVIIKL [LCE2B] | 6.36 |
| QCVSRCQ [SPG21] | 0.894 |
| WAAPPGRWGAPLNDSVILKRWLGSWEKPSGCPLGNLHIISVLLVMSRWRGHRCAVSCSRNY [C19orf12] | 22 |
| SEMPAALPCQR [CUEDC1] | 1.21 |
| QWSWLRVGEGTWA [RTP2] | 2.67 |
| ECPARAAAPATLPRVAFRAAPRVGNLGARGGRLGVPFFFSFSFAFRLFYFFLK | 15.7 |
| ELLTAFPKALLQKRSMSVIITWLSNLFHSMEPWRRKTLSYFVTQPGIGLFGPTRFPSPEELPRPGDQC [GRM7] | 6.76 |
| YQNNGFL [GNL3] | 1.22 |
| KQQPV [DPPA2] | 0.433 |
| CGCQLGRKRETRP [CCND2] | 0.808 |
| YRCEGIGETLGWLVMVSIAGHQKLDS [B4GALNT2] | 17.4 |
| QWPSDDS [COL15A1] | 0.307 |
| WRPNSRTPK [SNRNP35] | 0.861 |
| RRTHRQ [ZNF397] | 1.02 |
| LLL [Leu03] | 4.12 |
| SKTNTFYLWEAVPRFQPEL [ZBTB21] | 11.3 |

| Substance | median enrichment |
| --- | --- |
| WLYLRFEAGKPDR [UGT2B10] | 6.76 |
| RCDQVALGRDPRVFMRHLKLIKELRLELIWCSP [KCNC2] | 10.9 |
| YYYYYYY [Tyr07] | 3.18 |
| CAQDGPRPSMANNHVRHSTSGRCSDASAGAGTPNPWLQNRDPHPDRGSSAFEGFQAGLCGTEAQRGPGTWQRWGREEIQLPSL [CCDC86] | 5.52 |
| CRRPPGGGSGGRCVDPTASSSY [FRAT2] | 0.875 |
| KRQK [CCR2] | 0.621 |
| QVTGNLSHLPFSSGTTLHKCVPRGSPFLSSSTENAARSSYPSSRGPAAMLYAPEGTLVPRKERKKRDGLWLHFLGP [VAMP8] | 7.27 |
| CPCSRVSQGHFAATAAFPEIKQPGAVASELRGAGGRARTLGLGHGALSLKATFLTYSLYITQRP [CTNS] | 3.76 |
| CSWSRG [MLIP] | 6.67 |
| GGQVAEGSGCRLLYPLCLKHPPHRALVFTRFVLDSLNGNRIPWLRAKTTTYQCPCPFQLTLSSLRSSLSLWKGHPSQGRNAWS [SLC13A5] | 8.48 |
| YPSL [KCNK2] | 0.357 |
| YLSSAPVVVVVLNFRI [ZSCAN21] | 16.1 |
| GGR [RGS21] | 0.868 |
| WPV [HNRNPUL1] | 0.672 |
| CGRPELSRPPPALLGAGVLDPWHLPGPLT [LLGL1] | 2.46 |
| KTQMRASLRLPETARPKSQVQSFPTPLKFIVSSREKQIPIHPTNRCIVWVLEVPSKLLLVRLG [PPEF1] | 14.2 |
| LMDHG [GLUD2] | 1.6 |
| EEESLPPPKYWAALSLPRDHPSLPAMCTIMTNLFGYAVVLPFWGLGSTRRLCLQCRNLFSLCVAGARAQGPCLCIFNKYSFSK [GPR108] | 0.994 |
| QCITECGHQPRAAW [FOXJ2] | 0.515 |
| SGAENGSCRKIRLRRLPAFCHPSHSQTPDHLKLLTLWFQIFFNLLLLLSLSNLGTFKNREMSECG [STAT3] | 6.44 |
| WLFCKSVLGGPSLRV [OR9A2] | 4.81 |
| WRPAPARMGGGVERRTPIG [NSG2] | 3.66 |
| WLTLSLCCLLLS [SIRPB1] | 18.9 |
| LAASRATSPHVGCPSWGREGQSVGWLGRGLALVGQPTPQPERA [RBM10] | 8.96 |

| Substance | median enrichment |
| --- | --- |
| LQPTWSTRAGP [KRT36] | 0.897 |
| RGGRTSNLPKRLPCPNPFITPSFRHPQPLLAQKENWGLRVGTQA [TNF] | 7.66 |
| YVCCLPSPSGHTLLYHTTGLDSGWRQIDTV [LIG3] | 5.91 |
| LGLGRAHSAG [ATPAF2] | 10 |
| QHQ [ANKRD6] | 0.522 |
| WLSF [KRT28] | 6.06 |
| QAMPRPRT [CREB3L1] | 0.317 |
| RGPELARPRTPNTIFAIQPQAMGTAFLPRGPGRPQRLLQARTLVHYTPCLGAEILQQKDAIFFVSFFSIFFSKESIFQYVECV [NFYC] | 3.94 |
| SGKWCFPQEDYWNWMTSE [ACBD5] | 2 |
| LWLPRPGRLLDILFWLNIVLWMVPQSGARILPRRKATNGSGNYIKPETLQQGENCAPGCLAQASLEPSKHFCPS [MAB21L3] | 6.66 |
| WGEPQTLRES [C7orf61] | 0.458 |
| WGPDSELEGGEIFKEKRGKWEGCKRGE [SOX2] | 29.7 |
| LVAPPHWTHGLAHASPLLPLPAIDNVAGTSASPLQPSNFPGTLLSAPEEGAVVSCCLWAPASSAVLGSVLLASVNNKATVCSG [MCM5] | 4.44 |
| SDYCKPLPLLPCLCLFSPLTYSISQPPPTCLCDLRTVPSRHWDKGRISCSPPESAWCCPLFPLCAYD [PRPF3] | 2.87 |
| RYC [NCK1] | 0.896 |
| QNIYRVTKNKQSKKKTVY [LRRC4C] | 31.9 |
| LGLLALTLQPTLAVWPSPGSFPAPLPLFPVLLNSPSWRVQALGMGGTRPHSFHRALRPDTADQPHSAQEAASGVGAQRGTAAS [BAP1] | 8.12 |
| LTEQLLMSGG [NDUFS5] | 5.57 |
| QYNF [PPP1R42] | 0.505 |
| SIVLSTNLKSKGSSQSQPLCP [HIST1H3E] | 3.49 |
| YKGAEEGWSGWAGGPTSSPQHLPPTQLGQRGQDVCLPLRDRCLCPHTATGV [SEMA3G] | 2.63 |
| SVQMMWEFVGFLFFFFFDT [ZNF80] | 7.98 |
| WTTNTQRNNLFTTPGCMIEGEASTSTSRGP [TTLL5] | 16.4 |
| PPTTPHQATPAASAFLGAERQPRPPVPSPPSHHRSSAPGRTVWPLPVPAMGSGWTPWAPPIAKPGRQLSLVPASGQPRVSPAS [CAPN1] | 6.04 |

| Substance | median enrichment |
| --- | --- |
| YPQPPPHHPLPKSSACSPGERTAGLSY [COTL1] | 11.5 |
| VSSFLLVFFILFSFHQPSCILALQRDRDRSSAQGFSLPLFIMGGGYHPPSQSCEESGTSFFPTSLFPHSFLSPSGLSFPYTLT [NOTCH3] | 5.94 |
| SHHQELTHT [NUP88] | 0.49 |
| SKNQRGSEKPRET [CDKN2A] | 0.493 |
| CLSTVLFS [SUDS3] | 5.55 |
| YPAHLASLFSF [ECD] | 2.85 |
| WPQFQLSWAPAWTLPMAMPSLGNLSLPSVG [PLA2G3] | 12.4 |
| MMMMMMMMM [Met09] | 8.27 |
| YNLIASTLKDKTSNSHLL [KIF9] | 1.28 |
| YLSVYLSIYLSIYLSIYVYLSCIYTRL [AK9] | 9.52 |
| CAWSAHRLSSAFALLRCYRTLAPDVCSFTGCLICLLHPTGPPTSSDVFLIMSAMCPILLHALPPFPTTAEWPGTCLKCLFPIS [F11R] | 6.63 |
| QVFGKQQRASPLPGGLPCRFWASFPCLSLFRCAFHL [MAP2K1] | 13.2 |
| EHVGSVPTQCFGKCKI [DNAH5] | 0.681 |
| WGATSFSTTMLLHFPTPTRPPSSPPTPFSHSHPHHRSLDCWEWKPGGVMAQVL [RAMP2] | 8.95 |
| YAQLAICKVTSAKFSFGSYPRAPMSSYQEVINVTPFHRLKGVITLLLG [PAFAH2] | 4.37 |
| WPVRPLSSPS [TBL3] | 0.256 |
| QRTTEHLVSQNGLTTVSTTYSQMSISTSVELK [CYLC1] | 1.57 |
| SYKQRTSSILRKEML [MEOX2] | 5.43 |
| RLAACLRNPAFFRR [MAPK10] | 12.2 |
| KQGRWERDCLLPLLSSSCLEVEAV [GRM6] | 6.27 |
| RMSSFIRIWALSSFFSTHFPLPGPPLIQMPPSDSSWKPFLQLGQYDF [MSANTD2] | 33.9 |
| QTTFPKENIRGFHC [CPVL] | 0.323 |
